Measured values reported in patent publication US20080181886A1 (Genentech, published 2008).
Changes are numbered by the printed parent chain.

T1: Murine APRIL (mouse, UniProt Q9D777 105-241, limits assumed)
T1 sequence (looked up): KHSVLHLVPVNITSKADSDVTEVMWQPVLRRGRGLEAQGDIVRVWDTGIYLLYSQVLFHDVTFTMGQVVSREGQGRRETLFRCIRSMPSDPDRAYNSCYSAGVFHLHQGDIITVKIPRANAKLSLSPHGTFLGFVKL

B1: TACI_d2 I92D (receptor)
chain: SLSCRKEQGKFYDHLLRDCISCASDCGQHPKQCAYFCENKLR
notes: phage library variant, format as m9
B2: TACI_d2 I92H (receptor)
chain: B1 chain with D25H
notes: as for B1
B3: TACI_d2 R84F (receptor)
chain: B1 chain with R17F, D25I
notes: as for B1
B4: TACI_d2 R84V (receptor)
chain: B1 chain with R17V, D25I
notes: as for B1
B5: TACI_d2 I92Y (receptor)
chain: B1 chain with D25Y
notes: as for B1
B6: TACI_d2 Y79C (receptor)
chain: B1 chain with Y12C, D25I
notes: as for B1
B7: TACI_d2 Y79Q (receptor)
chain: B1 chain with Y12Q, D25I
notes: as for B1
B8: TACI_d2 I92F (receptor)
chain: B1 chain with D25F
notes: as for B1
B9: TACI_d2 R84E (receptor)
chain: B1 chain with R17E, D25I
notes: as for B1
B10: TACI_d2 Y79R (receptor)
chain: B1 chain with Y12R, D25I
notes: as for B1
B11: TACI_d2 R84Q (receptor)
chain: B1 chain with R17Q, D25I
notes: as for B1
B12: TACI_d2 R84I (receptor)
chain: B1 chain with R17I, D25I
notes: as for B1
B13: TACI_d2 Y79N (receptor)
chain: B1 chain with Y12N, D25I
notes: as for B1
B14: TACI_d2 I92N (receptor)
chain: B1 chain with D25N
notes: as for B1
B15: TACI_d2 Y79V (receptor)
chain: B1 chain with Y12V, D25I
notes: as for B1
B16: TACI_d2 R84W (receptor)
chain: B1 chain with R17W, D25I
notes: as for B1
B17: TACI_d2 I92Q (receptor)
chain: B1 chain with D25Q
notes: as for B1
B18: TACI_d2 Y79W (receptor)
chain: B1 chain with Y12W, D25I
notes: as for B1
B19: TACI_d2 I92E (receptor)
chain: B1 chain with D25E
notes: as for B1
B20: TACI_d2 Y79K (receptor)
chain: B1 chain with Y12K, D25I
notes: as for B1
B21: TACI_d2 I92R (receptor)
chain: B1 chain with D25R
notes: as for B1
B22: TACI_d2 I92G (receptor)
chain: B1 chain with D25G
notes: as for B1
B23: TACI_d2 I92M (receptor)
chain: B1 chain with D25M
notes: as for B1
B24: TACI_d2 R84L (receptor)
chain: B1 chain with R17L, D25I
notes: as for B1
B25: TACI_d2 R84D (receptor)
chain: B1 chain with R17D, D25I
notes: as for B1
B26: TACI_d2 Y79F (receptor)
chain: B1 chain with Y12F, D25I
notes: as for B1
B27: TACI_d2 R84H (receptor)
chain: B1 chain with R17H, D25I
notes: as for B1
B28: TACI_d2 Y79M (receptor)
chain: B1 chain with Y12M, D25I
notes: as for B1
B29: TACI_d2 Y79I (receptor)
chain: B1 chain with Y12I, D25I
notes: as for B1
B30: TACI_d2 R84C (receptor)
chain: B1 chain with R17C, D25I
notes: as for B1
B31: TACI_d2 I92W (receptor)
chain: B1 chain with D25W
notes: as for B1
B32: TACI_d2 I92L (receptor)
chain: B1 chain with D25L
notes: as for B1
B33: TACI_d2 Y79L (receptor)
chain: B1 chain with Y12L, D25I
notes: as for B1
B34: TACI_d2 R84M (receptor)
chain: B1 chain with R17M, D25I
notes: as for B1
B35: TACI_d2 Y79T (receptor)
chain: B1 chain with Y12T, D25I
notes: as for B1
B36: TACI_d2 R84K (receptor)
chain: B1 chain with R17K, D25I
notes: as for B1
B37: TACI_d2 I92S (receptor)
chain: B1 chain with D25S
notes: as for B1
B38: TACI_d2 R84N (receptor)
chain: B1 chain with R17N, D25I
notes: as for B1
B39: TACI_d2 I92P (receptor)
chain: B1 chain with D25P
notes: as for B1
B40: TACI_d2 Y79G (receptor)
chain: B1 chain with Y12G, D25I
notes: as for B1
B41: TACI_d2 I92K (receptor)
chain: B1 chain with D25K
notes: as for B1
B42: TACI_d2 R84T (receptor)
chain: B1 chain with R17T, D25I
notes: as for B1
B43: TACI_d2 Y79P (receptor)
chain: B1 chain with Y12P, D25I
notes: as for B1
B44: TACI_d2 R84Y (receptor)
chain: B1 chain with R17Y, D25I
notes: as for B1
B45: TACI_d2 Y79H (receptor)
chain: B1 chain with Y12H, D25I
notes: as for B1
B46: TACI_d2 Y79E (receptor)
chain: B1 chain with Y12E, D25I
notes: as for B1
B47: TACI_d2 R84S (receptor)
chain: B1 chain with R17S, D25I
notes: as for B1

target: T1, Murine APRIL; assay: NNS library, phage display;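 also: ligand versus display occurrence-to-degeneracy ratio and higher means enriched by binding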
Procedure: (§1) This new phage library was subjected to sorting against either BAFF, APRIL or the display target antibody. After 3 rounds of sorting, approximately 48 clones were picked from each selection and the DNA sequences of the phage clones were determined. […] The normalized F′ value corrects for display bias and is calculated as the percent occurrence to percent degeneracy ratio for ligand selection divided by the percent occurrence to percent degeneracy ratio for display efficiency. Percent occurrence is calculated by dividing the number of times a particular amino acid appeared at a particular position by the total number of amino acids sequenced at that position followed by multiplying by 100. Percent degeneracy is calculated by dividing the degeneracy in code for a particular amino acid divided by the total degeneracy possible at that position followed by multiplying by 100 (e.g., if only A, G and I were selected, total degeneracy possible would be 5).

Binder | F' APRIL
B1 | 0
B2 | 0
B3 | 9
B4 | 4
B5 | 0
B6 | 0
B7 | 0
B8 | 0
B9 | 3
B10 | 0
B11 | 0
B12 | 0
B13 | 0
B14 | 0
B15 | 0
B16 | 9
B17 | 0
B18 | 3
B19 | 0
B20 | 0
B21 | 0
B22 | 0
B23 | 0
B24 | 3

Binder | F' APRIL
B25 | 9
B26 | 4
B27 | 0
B28 | 0
B29 | 4
B30 | 0
B31 | 0
B32 | 2
B33 | 0
B34 | 18
B35 | 0
B36 | 0
B37 | 0
B38 | 0
B39 | 0
B40 | 0
B41 | 0
B42 | 0
B43 | 2
B44 | 0
B45 | 0
B46 | 8
B47 | 0

target: human BAFF (human, UniProt Q9Y275 82-285, limits assumed); assay: NNS library, phage display;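 also: ligand versus display occurrence-to-degeneracy ratio and higher means enriched by binding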
Procedure: as §1

human BAFF, sequence (Q9Y275 82-285 limits assumed): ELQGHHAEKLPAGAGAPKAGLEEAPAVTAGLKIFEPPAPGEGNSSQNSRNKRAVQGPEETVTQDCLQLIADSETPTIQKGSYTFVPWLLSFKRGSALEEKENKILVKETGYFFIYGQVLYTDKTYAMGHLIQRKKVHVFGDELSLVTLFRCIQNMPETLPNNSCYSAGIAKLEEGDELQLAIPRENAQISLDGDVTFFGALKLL

Binder | F' BAFF
B1 | 0
B2 | 0
B3 | 7
B4 | 2
B5 | 0
B6 | 0
B7 | 0
B8 | 0
B9 | 0
B10 | 0
B11 | 0
B12 | 0
B13 | 0
B14 | 0
B15 | 2
B16 | 0
B17 | 0
B18 | 4
B19 | 0
B20 | 0
B21 | 0
B22 | 0
B23 | 0
B24 | 2

Binder | F' BAFF
B25 | 0
B26 | 5
B27 | 1
B28 | 0
B29 | 6
B30 | 0
B31 | 0
B32 | 0
B33 | 1
B34 | 7
B35 | 0
B36 | 1
B37 | 0
B38 | 1
B39 | 0
B40 | 0
B41 | 0
B42 | 3
B43 | 3
B44 | 1
B45 | 0
B46 | 0
B47 | 0
